B3: NEMOw (domain or fragment)
chain: GSWEQGAPETLQRCLEENQELRDAIRQSNQILRERCEELLHFQASQREEKEFLMCKFQEARKLVERLGLEKL
B4: 5′FAM-IKKβ_(KK/RR) (peptide, UniProt O14920 701-745, looked up)
chain: 5FAM-PARRSEELVAEAHNLCTLLENAIQDTVREQDQSFTALDWSWLQTE
modifications: not fully specified

The target of one data set is NEMOwNcc (UniProt Q9Y6K9). As to the kind of experiment: non-reducing SDS-PAGE.
Data set [1] concerns the target 5′FAM-IKKβ_(KK/RR) (UniProt O14920). The experiment in a line: fluorescence polarisation. Background: Polarisation of emitted light reports the rotation of a fluorescent probe.
The next data set concerns the target NEMOwCcc (UniProt Q9Y6K9). As to the kind of experiment: non-reducing SDS-PAGE.
The target in data set [2] is B4. The experiment in a line: fluorescence polarisation.
For data set [3], the target named is T1, GST-NEMO(1–196) (UniProt Q9Y6K9 1-196). As to the kind of experiment: fluorescence polarisation.
The data set “non-reducing SDS-PAGE” concerns the molecule itself. As to the kind of experiment: non-reducing SDS-PAGE.
The data set “NEMOw” has as its target B3. The experiment in a line: fluorescence polarisation.
Data set [4] addresses T1, GST-NEMO(1–196). As to the kind of experiment: fluorescence polarisation. This is another data set of the same source.

Six molecules from PMC4222529 (Biochemistry, 2014) can be followed below.

A word on the stoichiometry N: it is a count of units in the complex or per binding partner. By Kd is commonly meant the free concentration of one partner at which half of the binding sites on the other are occupied at equilibrium, for simple one-to-one binding. The IC50 is the concentration at which inhibition is half-maximal. Higher therefore signals weaker potency in that assay.

No end group written: not given here. *: point of attachment. 5FAM = O=C1OC2(c3ccc(O)cc3Oc3cc(O)ccc32)c2ccc(C(=O)*)cc21

“NEMOwNcc (from UniProt Q9Y6K9 51-112) (designed binder)”: the stoichiometry N with NEMOwNcc came out at 2. Also, the Kd with 5′FAM-IKKβ_(KK/RR) [1] was found to be 980 nM.

Take “NEMOwCcc (from UniProt Q9Y6K9 44-112) (designed binder)”: in the data set with NEMOwCcc, the stoichiometry N is 2. In the data set with 5′FAM-IKKβ_(KK/RR) [1], the dissociation constant Kd worked out at 150 nM.

B1: NEMOwDcc (designed binder)
chain: GSWSVKELEDKNEELLSEIAHLKNEVARLKKLLQRCLEENQELRDAIRQSNQILRERCEELLHFQASQREEKEFLMCKFQEARKLVERLGLEKLELEDKNEELLSEIAHLKNEVARLKKLVGER
For B1, in the data set with 5′FAM-IKKβ_(KK/RR) [2], the Kd was determined as 114 ± 3 nM.

B2: IKKβ_(KK/RR) (peptide, UniProt O14920 701-745, looked up)
chain: PARRSEELVAEAHNLCTLLENAIQDTVREQDQSFTALDWSWLQTE
In the data set with GST-NEMO(1–196) [3], B2 showed an IC50 of 167 ± 3 nM.

Regarding B3, in the data set “non-reducing SDS-PAGE”, the “stoichiometry N” value was 2.

As to B4, the Kd with NEMOw is approximately 10000 nM; in the data set with GST-NEMO(1–196) [4], 168 ± 4 nM.
